The record followed here is patent US20220042033A1, “COMPOSITION AND METHOD FOR CONFERRING AND/OR ENHANCING TOLERANCE AGAINST HERBICIDES BY USING VARIANTS OF PPO” (FarmHannong Co., Ltd., priority 2017, published 2022).

Experiment [1] has as its system MxPPO. As to the kind of experiment: Herbicide tolerance test of MxPPO wild type and variants in PPO-deficient E. coli BT3(ΔPPO), growth on herbicide-containing LB agar. In kind it is cell-based, Myxococcus xanthus. Conditions: relative to MxPPO WT; for Herbicide tolerance, tiafenacil: 2000 μM (FIG. 14). As for the experimental part: Then, the extent of tolerance was evaluated.

Experiment [2] relates to MxPPO. As to the kind of experiment: PPO enzyme activity of purified MBP-fused MxPPO wild type and variants. In kind it is biochemical, Myxococcus xanthus. To be noted: PPO enzyme activity of purified MxPPO protein, relative to wild type.
Setting [3] is: light, up to 400 μM (FIGS. 15-17).
The mark [4] stands for this setting: light, up to 1000 μM (FIGS. 18-20).
Where [5] appears, read: dark, up to 1000 μM (FIGS. 21-22).
Where [6] appears, read: dark, up to 4000 μM (FIGS. 23-24).

Changes are numbered by the printed parent chain. In names and notes the source's numbering stands.

B1: R95A + I168C + M365I: MxPPO (SEQ ID NO: 3) variant (protein)
chain: MHHMPRTTGMNVAVVGGGISGLAVAHHLRSRGTDAVLLESSARLGGAVGTHALAGYLVEQGPNSFLDREPATRALAAALNLEGRIRAADPAAKRAYVYTRGRLRSVPASPPAFLASDILPLGARLRVAGELFSRRAPEGVDESLAAFGRRHLGHRATQVLLDAVQTGCYAGDVEQLSVAATFPMLVKMEREHRSLILGAIRAQKAQRQAALPAGTAPKLSGALSTFDGGLQVLIDALAASLGDAAHVGARVEGLAREDGGWRLIIEEHGRRAELSVAQVVLAAPAHATAKLLRPLDDALAALVAGIAYAPIAVVHLGFDAGTLPAPDGFGFLVPAEEQRRMLGAIHASTTFPFRAEGGRVLYSCIVGGARQPGLVEQDEDALAALAREELKALAGVTARPSFTRVFRWPLGIPQYNLGHLERVAAIDAALQRLPGLHLIGNAYKGVGLNDCIRNAAQLADALVAGNTSHAP
modifications: Synthetic (Protoporphyrinogen IX oxidase (MxPPO) of Myxococcus xanthus)
In the case of B1, the “Herbicide tolerance, flumioxazin” value in experiment [1] (setting [3]) is on record as “+ (1-9 fold higher tolerance)”. The “Herbicide tolerance, sulfentrazone” value in experiment [1] (setting [4]) is “+ (1-9 fold higher tolerance)”. For the same molecule, in experiment [2], the “Activity (%)” value was 38%.

B2: I168C + M365I: MxPPO (SEQ ID NO: 3) variant (protein)
chain: B1 chain with A95R
modifications: Synthetic (Protoporphyrinogen IX oxidase (MxPPO) of Myxococcus xanthus)
Turning to B2, the “Herbicide tolerance, flumioxazin” value in experiment [1] (setting [3]) is recorded as “+ (1-9 fold higher tolerance)”. In experiment [1] (setting [4]), the “Herbicide tolerance, sulfentrazone” value is given as “+ (1-9 fold higher tolerance)”. In experiment [2], the “Activity (%)” value is 45%.

B3: R95A + I168C + A170C + I311M + M365V: MxPPO (SEQ ID NO: 3) variant (protein)
chain: B1 chain with A170C, I311M, I365V
modifications: Synthetic (Protoporphyrinogen IX oxidase (MxPPO) of Myxococcus xanthus)
As for B3, the “Herbicide tolerance, flumioxazin” value in experiment [1] (setting [5]) is reported as “+ (1-9 fold higher tolerance)”. For the same molecule, the “Herbicide tolerance, sulfentrazone” value in experiment [1] (setting [6]) is recorded as “+++ (100-999 fold higher tolerance)”. Also, in experiment [2], the “Activity (%)” value was 17%.

B4: A170C + I311M + M365I: MxPPO (SEQ ID NO: 3) variant (protein)
chain: B1 chain with A95R, C168I, A170C, I311M
modifications: Synthetic (Protoporphyrinogen IX oxidase (MxPPO) of Myxococcus xanthus)
Consider B4, for which the “Herbicide tolerance, flumioxazin” value in experiment [1] (setting [3]) is recorded as “++ (10-99 fold higher tolerance)”. Besides, the “Herbicide tolerance, sulfentrazone” value in experiment [1] (setting [4]) was “+ (1-9 fold higher tolerance)”. Also, the “Activity (%)” value in experiment [2] worked out at 69%.

B5: R95A + I311M + M365V: MxPPO (SEQ ID NO: 3) variant (protein)
chain: B1 chain with C168I, I311M, I365V
modifications: Synthetic (Protoporphyrinogen IX oxidase (MxPPO) of Myxococcus xanthus)
In the case of B5, the “Herbicide tolerance, flumioxazin” value in experiment [1] (setting [3]) is “++ (10-99 fold higher tolerance)”. The “Herbicide tolerance, sulfentrazone” value in experiment [1] (setting [4]) is reported as “+ (1-9 fold higher tolerance)”. Also, the “Activity (%)” value in experiment [2] was found to be 37%.

B6: I311M + L332T + M365V: MxPPO (SEQ ID NO: 3) variant (protein)
chain: B1 chain with A95R, C168I, I311M, L332T, I365V
modifications: Synthetic (Protoporphyrinogen IX oxidase (MxPPO) of Myxococcus xanthus)
With B6, in experiment [1] (light), the “Herbicide tolerance, tiafenacil” value is “+ (1-9 fold higher tolerance)”. Moreover, the “Herbicide tolerance, flumioxazin” value in experiment [1] (setting [3]) is “+++ (100-999 fold higher tolerance)”. In addition, the “Herbicide tolerance, sulfentrazone” value in experiment [1] (setting [4]) is “++ (10-99 fold higher tolerance)”. Also, in experiment [2], the “Activity (%)” value amounted to 55%.

B7: A170C + I311M + L332T + M365I: MxPPO (SEQ ID NO: 3) variant (protein)
chain: B1 chain with A95R, C168I, A170C, I311M, L332T
modifications: Synthetic (Protoporphyrinogen IX oxidase (MxPPO) of Myxococcus xanthus)
For the molecule B7, the “Herbicide tolerance, flumioxazin” value in experiment [1] (setting [5]) is “+ (1-9 fold higher tolerance)”. The “Activity (%)” value in experiment [2] came out at 52%.

B8: R95A + A170C + L332T + M365I: MxPPO (SEQ ID NO: 3) variant (protein)
chain: B1 chain with C168I, A170C, L332T
modifications: Synthetic (Protoporphyrinogen IX oxidase (MxPPO) of Myxococcus xanthus)
Regarding B8, in experiment [1] (setting [5]), the “Herbicide tolerance, flumioxazin” value was “+ (1-9 fold higher tolerance)”. For the same molecule, the “Herbicide tolerance, sulfentrazone” value in experiment [1] (setting [6]) is listed as “+++ (100-999 fold higher tolerance)”. Further, in experiment [2], the “Activity (%)” value was determined as 35%.

B9: I168C + A170C + M365V: MxPPO (SEQ ID NO: 3) variant (protein)
chain: B1 chain with A95R, A170C, I365V
modifications: Synthetic (Protoporphyrinogen IX oxidase (MxPPO) of Myxococcus xanthus)
For the molecule B9, in experiment [1] (setting [3]), the “Herbicide tolerance, flumioxazin” value is recorded as “++ (10-99 fold higher tolerance)”. Also, the “Herbicide tolerance, sulfentrazone” value in experiment [1] (setting [4]) is on record as “++ (10-99 fold higher tolerance)”. Besides, the “Activity (%)” value in experiment [2] was 45%.

B10: I168C + M365V: MxPPO (SEQ ID NO: 3) variant (protein)
chain: B1 chain with A95R, I365V
modifications: Synthetic (Protoporphyrinogen IX oxidase (MxPPO) of Myxococcus xanthus)
Consider B10, for which the “Herbicide tolerance, flumioxazin” value in experiment [1] (setting [3]) is listed as “+ (1-9 fold higher tolerance)”. Besides, the “Herbicide tolerance, sulfentrazone” value in experiment [1] (setting [4]) is reported as “+ (1-9 fold higher tolerance)”. In addition, the “Activity (%)” value in experiment [2] is 42%.

B11: R95A + L332T + M365I: MxPPO (SEQ ID NO: 3) variant (protein)
chain: B1 chain with C168I, L332T
modifications: Synthetic (Protoporphyrinogen IX oxidase (MxPPO) of Myxococcus xanthus)
Take B11: the “Herbicide tolerance, flumioxazin” value in experiment [1] (setting [3]) is given as “+ (1-9 fold higher tolerance)”. The “Herbicide tolerance, sulfentrazone” value in experiment [1] (setting [4]) was “+ (1-9 fold higher tolerance)”. The “Activity (%)” value in experiment [2] was found to be 38%.

B12: I168C + A170C + I311M + M365I: MxPPO (SEQ ID NO: 3) variant (protein)
chain: B1 chain with A95R, A170C, I311M
modifications: Synthetic (Protoporphyrinogen IX oxidase (MxPPO) of Myxococcus xanthus)
Regarding B12, the “Herbicide tolerance, flumioxazin” value in experiment [1] (setting [5]) is recorded as “+ (1-9 fold higher tolerance)”. In addition, the “Herbicide tolerance, sulfentrazone” value in experiment [1] (setting [6]) was “+ (1-9 fold higher tolerance)”. The “Activity (%)” value in experiment [2] turned out to be 44%.

B13: I168C + L332T + M365V: MxPPO (SEQ ID NO: 3) variant (protein)
chain: B1 chain with A95R, L332T, I365V
modifications: Synthetic (Protoporphyrinogen IX oxidase (MxPPO) of Myxococcus xanthus)
B13: the “Herbicide tolerance, tiafenacil” value in experiment [1] (light) is “+ (1-9 fold higher tolerance)”. For the same molecule, the “Herbicide tolerance, flumioxazin” value in experiment [1] (setting [3]) is reported as “+++ (100-999 fold higher tolerance)”. Moreover, the “Herbicide tolerance, sulfentrazone” value in experiment [1] (setting [4]) is listed as “++ (10-99 fold higher tolerance)”. Besides, in experiment [2], the “Activity (%)” value was 49%.

B14: I168C + A170C + L332T + M365V: MxPPO (SEQ ID NO: 3) variant (protein)
chain: B1 chain with A95R, A170C, L332T, I365V
modifications: Synthetic (Protoporphyrinogen IX oxidase (MxPPO) of Myxococcus xanthus)
B14: the “Herbicide tolerance, flumioxazin” value in experiment [1] (setting [5]) is listed as “+ (1-9 fold higher tolerance)”. In experiment [1] (setting [6]), the “Herbicide tolerance, sulfentrazone” value was “++ (10-99 fold higher tolerance)”. Further, the “Activity (%)” value in experiment [2] is reported as 40%.

B15: R95A + I168C + A170C + L332T + M365I: MxPPO (SEQ ID NO: 3) variant (protein)
chain: B1 chain with A170C, L332T
modifications: Synthetic (Protoporphyrinogen IX oxidase (MxPPO) of Myxococcus xanthus)
Consider B15, for which the “Herbicide tolerance, flumioxazin” value in experiment [1] (setting [5]) is “+ (1-9 fold higher tolerance)”. In addition, the “Herbicide tolerance, sulfentrazone” value in experiment [1] (setting [6]) is given as “+++ (100-999 fold higher tolerance)”. Moreover, the “Activity (%)” value in experiment [2] is 18%.

B16: R95A + A170C + M365I: MxPPO (SEQ ID NO: 3) variant (protein)
chain: B1 chain with C168I, A170C
modifications: Synthetic (Protoporphyrinogen IX oxidase (MxPPO) of Myxococcus xanthus)
In the case of B16, the “Herbicide tolerance, flumioxazin” value in experiment [1] (setting [3]) is listed as “+ (1-9 fold higher tolerance)”. Moreover, in experiment [1] (setting [4]), the “Herbicide tolerance, sulfentrazone” value is listed as “+ (1-9 fold higher tolerance)”. The “Activity (%)” value in experiment [2] is 41%.

B17: I168C + I311M + M365I: MxPPO (SEQ ID NO: 3) variant (protein)
chain: B1 chain with A95R, I311M
modifications: Synthetic (Protoporphyrinogen IX oxidase (MxPPO) of Myxococcus xanthus)
Consider B17, for which, in experiment [1] (light), the “Herbicide tolerance, tiafenacil” value was “+ (1-9 fold higher tolerance)”. Also, the “Herbicide tolerance, flumioxazin” value in experiment [1] (setting [3]) was “++ (10-99 fold higher tolerance)”. For the same molecule, the “Herbicide tolerance, sulfentrazone” value in experiment [1] (setting [4]) is “+ (1-9 fold higher tolerance)”. Further, the “Activity (%)” value in experiment [2] came to 47%.
